What all share (test): SPR
Experiment [1] concerns the target HSA peptide 13 (human, UniProt P02768).
Experiment [2] addresses HSA peptide 40 (human, UniProt P02768).
The target in experiment [3] is HSA peptide 4 (human, UniProt P02768).

B1: rituximab (antibody, V domains shown)
VH: QVQLQQPGAELVKPGASVKMSCKASGYTFTSYNMHWVKQTPGRGLEWIGAIYPGNGDTSYNQKFKGKATLTADKSSSTAYMQLSSLTSEDSAVYYCARSTYYGGDWYFNVWGAGTTVTVSA
VL: QIVLSQSPAILSASPGEKVTMTCRASSSVSYIHWFQQKPGSSPKPWIYATSNLASGVPVRFSGSGSGTSYSLTISRVEAEDAATYYCQQWTSNPPTFGGGTKLEIK
modifications: AlexaFluor 488 label (only in the ImageStream experiment, a3)
In the case of B1, the figures for the Kd in experiment [1], in experiment [2] and in experiment [3] were 400 nM, 0.52 nM and 57 nM, respectively.

Source of the values: paper PMC5381215 (2017).
